The values that follow come from US20030207290A1 (MESO SCALE TECHNOLOGIES, published 2003).

Where no end group is shown, it is not given here. [ ]: non-standard residue; d: D form. pS = N[C@@H](COP(=O)(O)O)C(=O)O

The chains are these.
B2: Phospholipase C gamma 1 (PLCγ) (EST clone IMAGE 4419252), in vitro translated, biotin-labelled (enzyme, UniProt P19174 1-1290, looked up)
chain: MAGAASPCANGCGPGAPSDAEVLHLCRSLEVGTVMTLFYSKKSQRPERKTFQVKLETRQITWSRGADKIEGAIDIREIKEIRPGKTSRDFDRYQEDPAFRPDQSHCFVILYGMEFRLKTLSLQATSEDEVNMWIKGLTWLMEDTLQAPTPLQIERWLRKQFYSVDRNREDRISAKDLKNMLSQVNYRVPNMRFLRERLTDLEQRSGDITYGQFAQLYRSLMYSAQKTMDLPFLEASTLRAGERPELCRVSLPEFQQFLLDYQGELWAVDRLQVQEFMLSFLRDPLREIEEPYFFLDEFVTFLFSKENSVWNSQLDAVCPDTMNNPLSHYWISSSHNTYLTGDQFSSESSLEAYARCLRMGCRCIELDCWDGPDGMPVIYHGHTLTTKIKFSDVLHTIKEHAFVASEYPVILSIEDHCSIAQQRNMAQYFKKVLGDTLLTKPVEISADGLPSPNQLKRKILIKHKKLAEGSAYEEVPTSMMYSENDISNSIKNGILYLEDPVNHEWYPHYFVLTSSKIYYSEETSSDQGNEDEEEPKEVSSSTELHSNEKWFHGKLGAGRDGRHIAERLLTEYCIETGAPDGSFLVRESETFVGDYTLSFWRNGKVQHCRIHSRQDAGTPKFFLTDNLVFDSLYDLITHYQQVPLRCNEFEMRLSEPVPQTNAHESKEWYHASLTRAQAEHMLMRVPRDGAFLVRKRNEPNSYAISFRAEGKIKHCRVQQEGQTVMLGNSEFDSLVDLISYYEKHPLYRKMKLRYPINEEALEKIGTAEPDYGALYEGRNPGFYVEANPMPTFKCAVKALFDYKAQREDELTFIKSAIIQNVEKQEGGWWRGDYGGKKQLWFPSNYVEEMVNPVALEPEREHLDENSPLGDLLRGVLDVPACQIAIRPEGKNNRLFVFSISMASVAHWSLDVAADSQEELQDWVKKIREVAQTADARLTEGKIMERRKKIALELSELVVYCRPVPFDEEKIGTERACYRDMSSFPETKAEKYVNKAKGKKFLQYNRLQLSRIYPKGQRLDSSNYDPLPMWICGSQLVALNFQTPDKPMQMNQALFMTGRHCGYVLQPSTMRDEAFDPFDKSSLRGLEPCAISIEVLGARHLPKNGRGIVCPFVEIEVAGAEYDSTKQKTEFVVDNGLNPVWPAKPFHFQISNPEFAFLRFVVYEEDMFSDQNFLAQATFPVKGLKTGYRAVPLKNNYSEDLELASLLIKIDIFPAKENGDLSPFSGTSLRERGSDASGQLFHGRAREGSFESRYQQPFEDFRISQEHLADHFDSRERRAPRRTRVNGDNRL
modifications: biotin on some lysine residues (incorporated at random from biotin-Lys-tRNA)
notes: also called PLCg
B3: IkBa phosphopeptide (IkBa-24pp), LKKERLLDDRHD(p)SGLD(p)SMKDEEYC (peptide)
peptide: LKKERLLDDRHD[pS]GLD[pS]MKDEEYC
modifications: not fully specified (residue 24); also: C-terminal Cys coupled to maleimide-activated BSA
notes: Chemically synthesized; the peptide-BSA conjugate was deposited on the electrode; also called IkBa peptide; IkBa-24ppC
B5: Shc1 (EST clone IMAGE 3907115), in vitro translated, biotin-labelled (other, UniProt P29353-2 1-473, looked up)
chain: MNKLSGGGGRRTRVEGGQLGGEEWTRHGSFVNKPTRGWLHPNDKVMGPGVSYLVRYMGCVEVLQSMRALDFNTRTQVTREAISLVCEAVPGAKGATRRRKPCSRPLSSILGRSNLKFAGMPITLTVSTSSLNLMAADCKQIIANHHMQSISFASGGDPDTAEYVAYVAKDPVNQRACHILECPEGLAQDVISTIGQAFELRFKQYLRNPPKLVTPHDRMAGFDGSAWDEEEEEPPDHQYYNDFPGKEPPLGGVVDMRLREGAAPGAARPTAPNAQTPSHLGATLPVGQPVGGDPEVRKQMPPPPPCPGRELFDDPSYVNVQNLDKARQAVGGAGPPNPAINGSAPRDLFDMKPFEDALRVPPPPQSVSMAEQLRGEPWFHGKLSRREAEALLQLNGDFLVRESTTTPGQYVLTGLQSGQPKHLLLVDPEGVVRTKDHRFESVSHLISYHMDNHLPIISAGSELCLQQPVERKL
modifications: biotin on some lysine residues (incorporated at random from biotin-Lys-tRNA)

Assay [1] deals with T1, EGFR-pY992 phosphopeptide, DADE(p)YLIPQQGFFSSPSTSC (phosphotyrosine at (p)Y (residue 5 of the printed peptide; EGFR Tyr992)).
T1 construct: also called EGFR-pTyr992
T1 peptide: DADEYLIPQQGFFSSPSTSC
The assay can be described thus: ECL 4-spot multi-array binding assay: peptide-BSA spot, biotinylated TnT protein, Sulfo-TAG streptavidin.

The target in assay [2] is T1, EGFR-pY992 phosphopeptide, …. The assay can be described thus: ECL 7-spot plate screen, peptide-BSA spot, biotinylated TnT protein, Ru-streptavidin; signal normalized in two steps.
In assay [3] the target is B3. The assay can be described thus: ECL 4-spot multi-array binding assay: peptide-BSA spot, biotinylated TnT protein, Sulfo-TAG streptavidin.
For assay [4], the target named is B3. The assay can be described thus: ECL plate binding assay: peptide-BSA on electrode, biotinylated TnT protein, Sulfo-TAG streptavidin. As for the experimental part: (§1) Also included were three other non specific EST clones as controls (Incyte, Palo alto, Calif.). […] Proteins were transferred into wells of the peptide-coated and BSA-blocked IPR plates. Sulfo-TAG labeled streptavidin (50 to 100 ng/well) was added to each well as the detection agent. […] The ECL signals were measured using an imaging plate reader (IPR).

Assay [5] addresses T2, c-Myc phosphopeptide (Myc-p58Tp62S), …(p)TPPL(p)SPSRRSGL (phosphothreonine and phosphoserine in P(p)TPPL(p)S (residues 15 and 19 of the printed peptide)).
T2 construct: Chemically synthesized; control peptide; also called c-Myc peptide
The description is as above. As for the experimental part: as §1

In assay [6] the target is B5. The assay can be described thus: ECL plate binding assay, peptide-BSA on electrode.
For assay [7], the target named is B2. Nature of the assay: ECL plate binding assay, peptide-BSA on electrode.

T2 sequence (peptide, as listed by the source): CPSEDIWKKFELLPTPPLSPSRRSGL

B1: βTRCP2 (EST clone IMAGE 4237375), in vitro translated, biotin-labelled (other, human, UniProt Q9UKB1 1-542, looked up)
chain: MEPDSVIEDKTIELMCSVPRSLWLGCANLVESMCALSCLQSMPSVRCLQISNGTSSVIVSRKRPSEGNYQKEKDLCIKYFDQWSESDQVEFVEHLISRMCHYQHGHINSYLKPMLQRDFITALPEQGLDHIAENILSYLDARSLCAAELVCKEWQRVISEGMLWKKLIERMVRTDPLWKGLSERRGWDQYLFKNRPTDGPPNSFYRSLYPKIIQDIETIESNWRCGRHNLQRIQCRSENSKGVYCLQYDDEKIISGLRDNSIKIWDKTSLECLKVLTGHTGSVLCLQYDERVIVTGSSDSTVRVWDVNTGEVLNTLIHHNEAVLHLRFSNGLMVTCSKDRSIAVWDMASATDITLRRVLVGHRAAVNVVDFDDKYIVSASGDRTIKVWSTSTCEFVRTLNGHKRGIACLQYRDRLVVSGSSDNTIRLWDIECGACLRVLEGHEELVRCIRFDNKRIVSGAYDGKIKVWDLQAALDPRAPASTLCLRTLVEHSGRVFRLQFDEFQIISSSHDDTILIWDFLNVPPSAQNETRSPSRTYTYISR
modifications: biotin on some lysine residues (incorporated at random from biotin-Lys-tRNA)
notes: Product of a coupled transcription/translation reaction, used without purification; also called βTRCP [c]; bTRCP2
With B1, the ECL signal in assay [1] is 60 ECL signal. Moreover, in assay [2], the “normalized ECL signal” value amounted to 1.
B2 showed an ECL signal in assay [3] of 26 ECL signal. The “Average ECL signal” value was determined as 341 ECL signal in assay [4] and 316 ECL signal in assay [5].
In the case of B3, the binding result in assay [6] and in assay [7] was “no binding” each time.

B4: βTRCP1 (EST clone IMAGE 3491843), in vitro translated, biotin-labelled (other, human, UniProt Q9Y297 1-605, looked up)
chain: MDPAEAVLQEKALKFMCSMPRSLWLGCSSLADSMPSLRCLYNPGTGALTAFQNSSEREDCNNGEPPRKIIPEKNSLRQTYNSCARLCLNQETVCLASTAMKTENCVAKTKLANGTSSMIVPKQRKLSASYEKEKELCVKYFEQWSESDQVEFVEHLISQMCHYQHGHINSYLKPMLQRDFITALPARGLDHIAENILSYLDAKSLCAAELVCKEWYRVTSDGMLWKKLIERMVRTDSLWRGLAERRGWGQYLFKNKPPDGNAPPNSFYRALYPKIIQDIETIESNWRCGRHSLQRIHCRSETSKGVYCLQYDDQKIVSGLRDNTIKIWDKNTLECKRILTGHTGSVLCLQYDERVIITGSSDSTVRVWDVNTGEMLNTLIHHCEAVLHLRFNNGMMVTCSKDRSIAVWDMASPTDITLRRVLVGHRAAVNVVDFDDKYIVSASGDRTIKVWNTSTCEFVRTLNGHKRGIACLQYRDRLVVSGSSDNTIRLWDIECGACLRVLEGHEELVRCIRFDNKRIVSGAYDGKIKVWDLVAALDPRAPAGTLCLRTLVEHSGRVFRLQFDEFQIVSSSHDDTILIWDFLNDPAAQAEPPRSPSRTYTYISR
modifications: biotin on some lysine residues (incorporated at random from biotin-Lys-tRNA)
notes: Product of a coupled transcription/translation reaction, used without purification; the text speaks of the genes in the human genome and of full-length cDNAs; also called βTRCP [c]; bTRCP1
In assay [1], B4 displayed an ECL signal of 54 ECL signal. Also, the “normalized ECL signal” value in assay [2] amounted to 1.
B5: the “Average ECL signal” value is 368 ECL signal in assay [4] and 341 ECL signal in assay [5].
